Experimental data from patent US20130243767A1.
Ends that are not written are not given here.

Target: CD32 (FcγRII) on human plasmacytoid dendritic cells (human) (UniProt P12318)
Experiment: cell-based or functional assay

Sequence of CD32 (FcγRII) on human plasmacytoid dendritic cells (human) (P12318 34-317): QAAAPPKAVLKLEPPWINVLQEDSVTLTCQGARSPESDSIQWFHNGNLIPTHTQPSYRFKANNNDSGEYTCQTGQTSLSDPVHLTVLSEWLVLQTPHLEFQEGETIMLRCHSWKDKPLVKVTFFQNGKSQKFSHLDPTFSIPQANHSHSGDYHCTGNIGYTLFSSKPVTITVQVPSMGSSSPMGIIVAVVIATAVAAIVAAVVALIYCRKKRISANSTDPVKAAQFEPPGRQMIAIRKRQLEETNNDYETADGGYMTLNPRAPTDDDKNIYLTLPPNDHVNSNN

IL-6 production of pDCS in PBMC after stimulation with CPG-C: 75 times
TNFα induction in PBMC after stimulation with CPG-C: 3 times
Binder: ADGAWAWVWLTETAVGAAK-biotin [aCD32a peptide published by Berntzen et al, …-biotin]
